Data taken from paper PMC13326754.

Assays:
[1] = target: GST-U2AF1α (Fritillaria borealis U2AF small subunit, paralog α) (Fritillaria borealis); assay: pull-down; GST-U2AF1 baits co-expressed with U2AF2-V5 in HEK293T cells; glutathione beads; washes under increasing salt concentration; western blot for V5 and GST
[2] = system: U2AF1alpha (Fritillaria borealis); assay: EMSA; settings: 330 nM; single U2AF1; never exceeded 5% bound; EMSA: 20 mM Hepes, 0.1 M NaCl, 5% glycerol, 0.5% Tween-20, pH 7.8, 50 ng/ul BSA, 0.5 mM TCEP, 0.5 mM EDTA; 1 h on ice; 6% PAGE 0.5x TBE at 4 C
[3] = system: U2AF1beta (Fritillaria borealis); assay: EMSA; settings: 330 nM; single U2AF1; never exceeded 5% bound; EMSA: 20 mM Hepes, 0.1 M NaCl, 5% glycerol, 0.5% Tween-20, pH 7.8, 50 ng/ul BSA, 0.5 mM TCEP, 0.5 mM EDTA; 1 h on ice; 6% PAGE 0.5x TBE at 4 C

excess protein bound on glutathione beads relative to U2AF2β [1] | Substance | binding signal [2] | binding signal [3]
10 to 35% | U2AF2α-V5 (Fritillaria borealis U2AF large subunit, paralog α, V5/6xHis tagged) (natural protein) |  | 
 | GGGUCGCUUCUCCCCCCCCCUAGGCGUCU [ORN.PyC] | < 5 % bound | < 5 % bound
 | GGGCUGUCCUCUUUUUUUUUUCAGGCGUCU [ORN.PyU] | < 5 % bound | < 5 % bound
